{
  "source": "paper PMC11094360",
  "about": "“Systematic characterization of gene families and functional analysis of PvRAS3 and PvRAS4 involved in rosmarinic acid biosynthesis in Prunella vulgaris” (Frontiers in Plant Science, 2024)",
  "key": {"PvRAS4 [1]": {"tested_on": "PvRAS4", "assay": "UPLC of acceptor consumption, nonlinear regression", "assay_type": "biochemical, Prunella vulgaris", "settings": "varied acyl acceptor, 2 mM p-coumaroyl-CoA; 100 mM Tris-HCl pH 7.0, 2 mM DTT, 4 mM MgCl2, 10% glycerol, 25 °C", "excerpt": "UPLC of acceptor consumption, nonlinear regression on PvRAS4"}, "PvRAS4 [2]": {"tested_on": "PvRAS4", "assay": "UPLC of product formation, nonlinear regression", "assay_type": "biochemical, Prunella vulgaris", "settings": "varied acyl donor, 2 mM DHPL; 100 mM Tris-HCl pH 7.0, 2 mM DTT, 4 mM MgCl2, 10% glycerol, 25 °C", "excerpt": "UPLC of product formation, nonlinear regression on PvRAS4"}, "[3]": {"substrate": "CC(C)(COP(=O)(O)OP(=O)(O)OC[C@H]1O[C@@H](n2cnc3c(N)ncnc32)[C@H](O)[C@@H]1OP(=O)(O)O)[C@@H](O)C(=O)NCCC(=O)NCCSC(=O)/C=C/c1ccc(O)cc1", "assay": "UPLC of product formation, nonlinear regression", "assay_type": "biochemical, Prunella vulgaris", "settings": "varied acyl donor, 2 mM pHPL, 100 mM Tris-HCl pH 7.0, 2 mM DTT, 4 mM MgCl2, 10% glycerol, 25 °C"}, "[4]": {"substrate": "CC(C)(COP(=O)(O)OP(=O)(O)OC[C@H]1O[C@@H](n2cnc3c(N)ncnc32)[C@H](O)[C@@H]1OP(=O)(O)O)[C@@H](O)C(=O)NCCC(=O)NCCSC(=O)/C=C/c1ccc(O)c(O)c1", "assay": "UPLC of product formation, nonlinear regression", "assay_type": "biochemical, Prunella vulgaris", "settings": "varied acyl donor, 2 mM DHPL, 100 mM Tris-HCl pH 7.0, 2 mM DTT, 4 mM MgCl2, 10% glycerol, 25 °C"}, "[5]": {"substrate": "O=C(O)C(O)Cc1ccc(O)cc1", "assay": "UPLC of acceptor consumption, nonlinear regression", "assay_type": "biochemical, Prunella vulgaris", "settings": "varied acyl acceptor, 2 mM p-coumaroyl-CoA, 100 mM Tris-HCl pH 7.0, 2 mM DTT, 4 mM MgCl2, 10% glycerol, 25 °C", "from_the_text": "UPLC of acceptor consumption, nonlinear regression on PvRAS3"}, "purified protein": {"substrate": "O=C(O)[C@H](O)Cc1ccc(O)c(O)c1", "assay": "purified protein", "settings": "varied acyl acceptor, 2 mM p-coumaroyl-CoA, 100 mM Tris-HCl pH 7.0, 2 mM DTT, 4 mM MgCl2, 10% glycerol, 25 °C"}},
  "data": [
    {"molecule": "O=C(O)C(O)Cc1ccc(O)cc1", "note": "(stereo not shown) [pHPL]", "values": [
      {"measurement": "Km", "setting": "PvRAS4 [1]", "result": "228 ± 16.6", "unit": "µM"}
    ]},
    {"molecule": "O=C(O)[C@H](O)Cc1ccc(O)c(O)c1", "note": "[DHPL]", "values": [
      {"measurement": "Km", "setting": "PvRAS4 [1]", "result": "227 ± 17.5", "unit": "µM"}
    ]},
    {"molecule": "CC(C)(COP(=O)(O)OP(=O)(O)OC[C@H]1O[C@@H](n2cnc3c(N)ncnc32)[C@H](O)[C@@H]1OP(=O)(O)O)[C@@H](O)C(=O)NCCC(=O)NCCSC(=O)/C=C/c1ccc(O)cc1", "note": "[p-coumaroyl-CoA]", "values": [
      {"measurement": "Km", "setting": "PvRAS4 [2]", "result": "218 ± 10.3", "unit": "µM"}
    ]},
    {"molecule": "PvRAS3 (Prunella vulgaris) (protein) MKIEVKESTMVKPAAETPTGGLWISNLDLLSPANYHTLSVHFYRHDGSDNFFEAAPLKEALSRALVEFYPYAGRLKLNGKRLEIDCNGEGLLLVEAESDGTLEELGDFAPRPDLNLIPKVDYSKGISSYPLMLFQITRFKCGGVGLGVANEHHLSDGVSALHFINTWCHLARGVPAPSPAPVFDRTALSARSPPKVEFTHPEFQPPPTLPTPLEHTDIAYAKLKLSRDQLNALKAKCKSPATANGQENGKPARPYSTFEVLAGHIWRCVCAARGLPAEQETKLHIPFDGRAKLQLPAGFFGNAIFFATPIATCGEVEANSLSYAVRRVGDAIGRLDEEYLRSSVDFLELQDDISKLAQGAHSFRCPNLWVISWVRLPIYEPDFGWGKAVYMGPWAAPFEGKSYLLPNPDNDGSLFVAITLHTQHMDRFQNFFYDI", "values": [
      {"measurement": "Km", "setting": "[3]", "result": "30.6 ± 1.2", "unit": "µM"},
      {"measurement": "Vmax", "setting": "[3]", "result": 18.7, "unit": "µmol/min/mg"},
      {"measurement": "kcat", "setting": "[3]", "result": "34.3 ± 2.2", "unit": "s⁻¹"},
      {"measurement": "kcat/Km", "setting": "[3]", "result": "1.1e+06", "unit": "M⁻¹ s⁻¹"},
      {"measurement": "Km", "setting": "[4]", "result": "173.2 ± 9.0", "unit": "µM"},
      {"measurement": "Vmax", "setting": "[4]", "result": 9.95, "unit": "µmol/min/mg"},
      {"measurement": "kcat", "setting": "[4]", "result": "14.1 ± 1", "unit": "s⁻¹"},
      {"measurement": "kcat/Km", "setting": "[4]", "result": 80000, "unit": "M⁻¹ s⁻¹"},
      {"measurement": "Km", "setting": "[5]", "result": "32.1 ± 0.7", "unit": "µM"},
      {"measurement": "Vmax", "setting": "[5]", "result": 19.4, "unit": "µmol/min/mg"},
      {"measurement": "kcat", "setting": "[5]", "result": "33.3 ± 2.3", "unit": "s⁻¹"},
      {"measurement": "kcat/Km", "setting": "[5]", "result": "1e+06", "unit": "M⁻¹ s⁻¹"},
      {"measurement": "Km", "setting": "purified protein", "result": "41.7 ± 1.2", "unit": "µM"},
      {"measurement": "Vmax", "setting": "purified protein", "result": 18.2, "unit": "µmol/min/mg"},
      {"measurement": "kcat", "setting": "purified protein", "result": 30.5, "unit": "s⁻¹"},
      {"measurement": "kcat/Km", "setting": "purified protein", "result": 700000, "unit": "M⁻¹ s⁻¹"}
    ]}
  ]
}
